According to patent US20240301069A1:
pEC50, pIC50: −log10 of the molar value.

Experiments:
[1] = molecular target: human PD-L1 full-length protein on CHO-hPD-L1 stable cells (human) (UniProt Q9NZQ7); assay: flow cytometry, antibody titration on CHO-hPD-L1 cells, MFI-APC
[2] = molecular target: macaque PD-L1 on CHO-cynoPD-L1 stable cells (macaque); assay: flow cytometry, antibody titration on CHO-cynoPD-L1 cells, MFI-APC
[3] = molecular target: human PD-L1 on IFNγ-stimulated A375 cells (human) (UniProt Q9NZQ7); assay: flow cytometry, antibody titration on human IFNγ-stimulated A375 cells, MFI-APC
human PD-L1 on IFNγ-stimulated A375 cells (human), sequence (Q9NZQ7 19-290): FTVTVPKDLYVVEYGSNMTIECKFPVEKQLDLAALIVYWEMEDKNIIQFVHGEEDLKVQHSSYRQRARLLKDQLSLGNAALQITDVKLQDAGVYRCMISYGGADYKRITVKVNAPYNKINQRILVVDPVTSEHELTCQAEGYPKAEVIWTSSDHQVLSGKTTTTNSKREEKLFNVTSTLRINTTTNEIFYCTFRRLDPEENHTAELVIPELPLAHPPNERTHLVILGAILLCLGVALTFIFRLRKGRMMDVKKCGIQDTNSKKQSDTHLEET

[4] = molecular target: human PD-L1 full-length protein on CHO-hPD-L1 stable cells (human) (UniProt Q9NZQ7); assay: flow cytometry blocking assay: antibody titrated on CHO-hPD-L1 cells; blocked ligand recombinant human CD80-hFc
[5] = molecular target: human PD-L1 full-length protein on CHO-hPD-L1 stable cells (human) (UniProt Q9NZQ7); assay: flow cytometry blocking assay (method 1): antibody titrated on CHO-hPD-L1 cells; blocked ligand recombinant human PD-1-hFc
[6] = molecular target: recombinant human PD-L1 protein carrying a hFc label (human) (UniProt Q9NZQ7); assay: flow cytometry blocking assay (method 2): antibody titrated; binding of recombinant human PD-L1-hFc to PD-1 on CHO-hPD-1 cells is blocked
recombinant human PD-L1 protein carrying a hFc label (human), sequence (Q9NZQ7 19-238): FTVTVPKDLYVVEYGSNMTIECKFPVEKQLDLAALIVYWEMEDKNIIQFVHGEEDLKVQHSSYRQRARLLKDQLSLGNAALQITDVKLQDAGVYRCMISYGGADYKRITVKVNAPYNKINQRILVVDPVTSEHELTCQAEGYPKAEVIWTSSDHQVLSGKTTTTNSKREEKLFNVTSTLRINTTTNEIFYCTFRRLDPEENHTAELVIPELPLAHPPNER

human PD-L1 full-length protein on CHO-hPD-L1 stable cells (human), sequence (Q9NZQ7 19-290 limits assumed): as the sequence (Q9NZQ7 19-290) above
macaque PD-L1 on CHO-cynoPD-L1 stable cells (macaque), sequence (Q9NZQ7 other isoform, or with tags, fused parts or gaps limits assumed): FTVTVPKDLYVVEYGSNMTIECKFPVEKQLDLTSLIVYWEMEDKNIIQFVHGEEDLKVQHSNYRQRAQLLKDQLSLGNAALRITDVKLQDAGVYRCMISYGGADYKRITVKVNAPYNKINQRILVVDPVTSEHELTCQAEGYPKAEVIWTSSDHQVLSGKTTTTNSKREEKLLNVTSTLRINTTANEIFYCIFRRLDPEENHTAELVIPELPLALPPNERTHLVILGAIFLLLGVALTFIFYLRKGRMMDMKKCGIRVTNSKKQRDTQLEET

atezolizumab-mIgG1 (mIgG1 subtype) (antibody)
pEC50 [1]: 9.01 | pEC50 [2]: 8.70 | pEC50 [3]: 9.92 | pIC50 [4]: 8.36 | pIC50 [5]: 8.20 | pIC50 [6]: 8.79
